Test results from the supplement of paper PMC9112550, “Optimization of the antimicrobial peptide Bac7 by deep mutational scanning” (BMC Biology, 2022).

Each sequence was assayed on Escherichia coli TOP10 (assay: shrunken log2 fold change of peptide-encoding DNA abundance (4.5 h post-induction vs induction); higher = less antimicrobial activity (less host growth inhibition)). Conditions: time post-induction: 4.5 h; library: site-saturation at positions 5, 18, 19, 20.
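Note: peptides expressed intracellularly from a pBAD plasmid library in pooled LB shake-flask culture, induced with 0.3% L-arabinose, DNA abundance read by NGS, three biological replicates, DESeq2 with apeglm shrinkage.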

Which “shrunken log2 fold change” value does the source give for RRIRVRPPRLPRPRPRPDTFPRP here?
The value was -0.0845.

For RRIRTRPPRLPRPRPRPKFSPRP, which “shrunken log2 fold change” value is on record?
The value was -0.189.

With RRIRFRPPRLPRPRPRPRWEPRP as the sequence, how does the “shrunken log2 fold change” value read?
Its value is 0.025.

Which “shrunken log2 fold change” value does the source give for RRIRFRPPRLPRPRPRPAMDPRP here?
Its value is -0.0614.

Which “shrunken log2 fold change” value does the source give for RRIRKRPPRLPRPRPRPRTHPRP here?
Its value is 0.425.

With RRIRHRPPRLPRPRPRPVKCPRP as the sequence, how does the “shrunken log2 fold change” value read?
The value was -0.00443.

How did the “shrunken log2 fold change” value turn out when RRIRARPPRLPRPRPRPNGLPRP was run?
Its value is -0.0319.

For RRIRCRPPRLPRPRPRPTYSPRP, which “shrunken log2 fold change” value is on record?
The value was -1.01.

RRIRVRPPRLPRPRPRPPERPRP was tested. Which “shrunken log2 fold change” value did it give?
The value was 0.257.

How did the “shrunken log2 fold change” value turn out when RRIRSRPPRLPRPRPRPYFCPRP was run?
Its value is -0.354.

How did the “shrunken log2 fold change” value turn out when RRIRPRPPRLPRPRPRPTVCPRP was run?
Its value is 0.149.

How did the “shrunken log2 fold change” value turn out when RRIRGRPPRLPRPRPRPMQNPRP was run?
Its value is 0.873.

How did the “shrunken log2 fold change” value turn out when RRIRARPPRLPRPRPRPPRPPRP was run?
The value was 1.

RRIRERPPRLPRPRPRPKFFPRP was tested. Which “shrunken log2 fold change” value did it give?
Its value is -0.0207.

For RRIRLRPPRLPRPRPRPWWNPRP, which “shrunken log2 fold change” value is on record?
The value was -0.426.

RRIRNRPPRLPRPRPRPSAPPRP was tested. Which “shrunken log2 fold change” value did it give?
The value was 0.0188.

With RRIRFRPPRLPRPRPRPADMPRP as the sequence, how does the “shrunken log2 fold change” value read?
The value was -0.155.

Which “shrunken log2 fold change” value does the source give for RRIRIRPPRLPRPRPRPFAHPRP here?
The value was -0.241.

How did the “shrunken log2 fold change” value turn out when RRIRNRPPRLPRPRPRPRCNPRP was run?
Its value is -0.0207.

Which “shrunken log2 fold change” value does the source give for RRIRKRPPRLPRPRPRPPYAPRP here?
Its value is 0.424.

How did the “shrunken log2 fold change” value turn out when RRIRDRPPRLPRPRPRPGRWPRP was run?
The value was 0.797.

How did the “shrunken log2 fold change” value turn out when RRIRPRPPRLPRPRPRPDQGPRP was run?
Its value is -0.0018.

Which “shrunken log2 fold change” value does the source give for RRIRYRPPRLPRPRPRPGWGPRP here?
Its value is -0.13.

With RRIRGRPPRLPRPRPRPVFKPRP as the sequence, how does the “shrunken log2 fold change” value read?
The value was 0.193.

For RRIRWRPPRLPRPRPRPNKGPRP, which “shrunken log2 fold change” value is on record?
The value was -0.346.

RRIRFRPPRLPRPRPRPIEVPRP was tested. Which “shrunken log2 fold change” value did it give?
The value was 0.0653.

With RRIRQRPPRLPRPRPRPQFDPRP as the sequence, how does the “shrunken log2 fold change” value read?
The value was -0.178.

With RRIRARPPRLPRPRPRPTNAPRP as the sequence, how does the “shrunken log2 fold change” value read?
The value was 0.434.

RRIRKRPPRLPRPRPRPAPLPRP was tested. Which “shrunken log2 fold change” value did it give?
The value was 0.929.

With RRIRIRPPRLPRPRPRPIDVPRP as the sequence, how does the “shrunken log2 fold change” value read?
Its value is 0.00859.

With RRIRERPPRLPRPRPRPYLYPRP as the sequence, how does the “shrunken log2 fold change” value read?
The value was -0.927.

Which “shrunken log2 fold change” value does the source give for RRIRCRPPRLPRPRPRPRIFPRP here?
The value was -0.16.

For RRIRWRPPRLPRPRPRPPEFPRP, which “shrunken log2 fold change” value is on record?
Its value is 0.094.

Which “shrunken log2 fold change” value does the source give for RRIRLRPPRLPRPRPRPKRWPRP here?
The value was 0.356.

For RRIRKRPPRLPRPRPRPYKIPRP, which “shrunken log2 fold change” value is on record?
Its value is -0.305.

For RRIRIRPPRLPRPRPRPLQYPRP, which “shrunken log2 fold change” value is on record?
The value was -0.591.

How did the “shrunken log2 fold change” value turn out when RRIRHRPPRLPRPRPRPALEPRP was run?
The value was -0.069.

For RRIRKRPPRLPRPRPRPWKTPRP, which “shrunken log2 fold change” value is on record?
The value was 0.0649.

For RRIRWRPPRLPRPRPRPARHPRP, which “shrunken log2 fold change” value is on record?
Its value is 0.31.

With RRIRERPPRLPRPRPRPWVIPRP as the sequence, how does the “shrunken log2 fold change” value read?
The value was 0.0392.

With RRIRFRPPRLPRPRPRPDDAPRP as the sequence, how does the “shrunken log2 fold change” value read?
The value was 0.133.

For RRIRARPPRLPRPRPRPRGVPRP, which “shrunken log2 fold change” value is on record?
Its value is 0.682.

RRIRLRPPRLPRPRPRPEDFPRP was tested. Which “shrunken log2 fold change” value did it give?
Its value is 0.0854.

For RRIRRRPPRLPRPRPRPHKQPRP, which “shrunken log2 fold change” value is on record?
The value was -0.00379.

With RRIRVRPPRLPRPRPRPWQIPRP as the sequence, how does the “shrunken log2 fold change” value read?
Its value is 0.00686.

With RRIRPRPPRLPRPRPRPRDSPRP as the sequence, how does the “shrunken log2 fold change” value read?
The value was 0.334.

With RRIRMRPPRLPRPRPRPTSLPRP as the sequence, how does the “shrunken log2 fold change” value read?
Its value is 0.546.

Which “shrunken log2 fold change” value does the source give for RRIRWRPPRLPRPRPRPPQNPRP here?
The value was 0.91.

How did the “shrunken log2 fold change” value turn out when RRIRRRPPRLPRPRPRPERDPRP was run?
Its value is 0.423.

For RRIRYRPPRLPRPRPRPHHSPRP, which “shrunken log2 fold change” value is on record?
The value was -1.27.

How did the “shrunken log2 fold change” value turn out when RRIRTRPPRLPRPRPRPCDYPRP was run?
Its value is -0.0715.

RRIRDRPPRLPRPRPRPSTTPRP was tested. Which “shrunken log2 fold change” value did it give?
The value was 0.0945.

RRIRPRPPRLPRPRPRPSSQPRP was tested. Which “shrunken log2 fold change” value did it give?
The value was -0.201.

Which “shrunken log2 fold change” value does the source give for RRIRERPPRLPRPRPRPSQNPRP here?
The value was -0.267.

For RRIRSRPPRLPRPRPRPWYSPRP, which “shrunken log2 fold change” value is on record?
Its value is -0.257.

RRIRYRPPRLPRPRPRPAYVPRP was tested. Which “shrunken log2 fold change” value did it give?
The value was -0.296.

For RRIRNRPPRLPRPRPRPRNIPRP, which “shrunken log2 fold change” value is on record?
Its value is -0.168.

With RRIRNRPPRLPRPRPRPLKIPRP as the sequence, how does the “shrunken log2 fold change” value read?
Its value is -0.233.

For RRIRCRPPRLPRPRPRPQIWPRP, which “shrunken log2 fold change” value is on record?
The value was -0.226.

For RRIRYRPPRLPRPRPRPDWRPRP, which “shrunken log2 fold change” value is on record?
Its value is 0.22.

Which “shrunken log2 fold change” value does the source give for RRIRYRPPRLPRPRPRPWKDPRP here?
The value was -0.0122.

With RRIRMRPPRLPRPRPRPHHRPRP as the sequence, how does the “shrunken log2 fold change” value read?
The value was -0.0556.

For RRIRGRPPRLPRPRPRPGCTPRP, which “shrunken log2 fold change” value is on record?
Its value is 0.885.

RRIRQRPPRLPRPRPRPHLFPRP was tested. Which “shrunken log2 fold change” value did it give?
Its value is 0.0199.

Which “shrunken log2 fold change” value does the source give for RRIRMRPPRLPRPRPRPPKVPRP here?
Its value is 0.272.

RRIRLRPPRLPRPRPRPHMEPRP was tested. Which “shrunken log2 fold change” value did it give?
The value was -0.101.

How did the “shrunken log2 fold change” value turn out when RRIRDRPPRLPRPRPRPLWSPRP was run?
The value was -0.0446.

How did the “shrunken log2 fold change” value turn out when RRIRHRPPRLPRPRPRPNAHPRP was run?
Its value is -0.0872.

With RRIRFRPPRLPRPRPRPQTNPRP as the sequence, how does the “shrunken log2 fold change” value read?
Its value is -0.619.

With RRIRWRPPRLPRPRPRPLPTPRP as the sequence, how does the “shrunken log2 fold change” value read?
Its value is 0.463.

Which “shrunken log2 fold change” value does the source give for RRIRIRPPRLPRPRPRPKNLPRP here?
Its value is -0.0922.

How did the “shrunken log2 fold change” value turn out when RRIRKRPPRLPRPRPRPPPFPRP was run?
Its value is 0.442.

RRIRHRPPRLPRPRPRPVLAPRP was tested. Which “shrunken log2 fold change” value did it give?
The value was 0.126.

With RRIRRRPPRLPRPRPRPLMSPRP as the sequence, how does the “shrunken log2 fold change” value read?
The value was -0.246.

RRIRIRPPRLPRPRPRPKPYPRP was tested. Which “shrunken log2 fold change” value did it give?
The value was -0.24.

Which “shrunken log2 fold change” value does the source give for RRIRCRPPRLPRPRPRPLIFPRP here?
Its value is -0.514.

Which “shrunken log2 fold change” value does the source give for RRIRHRPPRLPRPRPRPNLPPRP here?
Its value is -0.57.

For RRIRKRPPRLPRPRPRPAYPPRP, which “shrunken log2 fold change” value is on record?
The value was -0.0401.

For RRIRQRPPRLPRPRPRPSVEPRP, which “shrunken log2 fold change” value is on record?
The value was 0.218.

For RRIRTRPPRLPRPRPRPVQLPRP, which “shrunken log2 fold change” value is on record?
Its value is -0.16.

With RRIRERPPRLPRPRPRPWRPPRP as the sequence, how does the “shrunken log2 fold change” value read?
Its value is 0.0707.

How did the “shrunken log2 fold change” value turn out when RRIRVRPPRLPRPRPRPLHDPRP was run?
Its value is -0.41.

How did the “shrunken log2 fold change” value turn out when RRIRERPPRLPRPRPRPPGMPRP was run?
The value was 0.0408.

For RRIRPRPPRLPRPRPRPSGGPRP, which “shrunken log2 fold change” value is on record?
Its value is 0.191.

How did the “shrunken log2 fold change” value turn out when RRIRQRPPRLPRPRPRPHVKPRP was run?
Its value is -0.274.

RRIRDRPPRLPRPRPRPVMAPRP was tested. Which “shrunken log2 fold change” value did it give?
The value was 0.774.

Which “shrunken log2 fold change” value does the source give for RRIRYRPPRLPRPRPRPGEQPRP here?
Its value is 0.0237.

Which “shrunken log2 fold change” value does the source give for RRIRFRPPRLPRPRPRPMDNPRP here?
The value was 0.000389.

For RRIRNRPPRLPRPRPRPQGWPRP, which “shrunken log2 fold change” value is on record?
The value was 0.114.

For RRIRFRPPRLPRPRPRPGDLPRP, which “shrunken log2 fold change” value is on record?
The value was -0.23.

RRIRHRPPRLPRPRPRPNPDPRP was tested. Which “shrunken log2 fold change” value did it give?
The value was -0.0353.

For RRIRLRPPRLPRPRPRPTLIPRP, which “shrunken log2 fold change” value is on record?
The value was -0.407.

RRIRYRPPRLPRPRPRPVYYPRP was tested. Which “shrunken log2 fold change” value did it give?
The value was -0.68.

RRIRGRPPRLPRPRPRPVQQPRP was tested. Which “shrunken log2 fold change” value did it give?
The value was 0.515.

For RRIRDRPPRLPRPRPRPGIPPRP, which “shrunken log2 fold change” value is on record?
Its value is 0.016.

RRIRTRPPRLPRPRPRPNVWPRP was tested. Which “shrunken log2 fold change” value did it give?
The value was 0.0477.

Which “shrunken log2 fold change” value does the source give for RRIRCRPPRLPRPRPRPTSYPRP here?
The value was -0.119.

RRIRYRPPRLPRPRPRPQCNPRP was tested. Which “shrunken log2 fold change” value did it give?
The value was -0.269.

For RRIRVRPPRLPRPRPRPALPPRP, which “shrunken log2 fold change” value is on record?
Its value is 0.329.

Which “shrunken log2 fold change” value does the source give for RRIRYRPPRLPRPRPRPHFNPRP here?
The value was -1.23.

With RRIRARPPRLPRPRPRPNHLPRP as the sequence, how does the “shrunken log2 fold change” value read?
The value was -0.000432.

RRIRHRPPRLPRPRPRPLSWPRP was tested. Which “shrunken log2 fold change” value did it give?
The value was 0.146.

Which “shrunken log2 fold change” value does the source give for RRIRMRPPRLPRPRPRPFFKPRP here?
The value was -0.116.

With RRIRSRPPRLPRPRPRPLVLPRP as the sequence, how does the “shrunken log2 fold change” value read?
Its value is -0.233.

How did the “shrunken log2 fold change” value turn out when RRIRGRPPRLPRPRPRPDVTPRP was run?
Its value is 1.31.

With RRIRYRPPRLPRPRPRPSHFPRP as the sequence, how does the “shrunken log2 fold change” value read?
The value was -0.411.

With RRIRTRPPRLPRPRPRPVWKPRP as the sequence, how does the “shrunken log2 fold change” value read?
Its value is -0.026.

RRIRFRPPRLPRPRPRPKNPPRP was tested. Which “shrunken log2 fold change” value did it give?
Its value is -0.00149.

With RRIRMRPPRLPRPRPRPKKNPRP as the sequence, how does the “shrunken log2 fold change” value read?
The value was 1.46.
